This assay addresses Folate receptor alpha on cells (SKOV3, A1847, T47D; low levels on 293T and IOSE6) (human) (UniProt P15328). The assay can be described thus: cell-based or functional assay.

For 1 substance, frequency of T cells with surface CAR before exposure to SKOV3 tumor cells and frequency of T cells with surface CAR five hours after exposure to SKOV3 tumor cells results are on record in patent US20260078341A1, “TREATMENT OF CANCER USING CHIMERIC ANTIGEN RECEPTOR” (Novartis AG, priority 2014, published 2026).

Sequence of Folate receptor alpha on cells (SKOV3, A1847, T47D; low levels on 293T and IOSE6) (human) (P15328 25-234, stated change not applied): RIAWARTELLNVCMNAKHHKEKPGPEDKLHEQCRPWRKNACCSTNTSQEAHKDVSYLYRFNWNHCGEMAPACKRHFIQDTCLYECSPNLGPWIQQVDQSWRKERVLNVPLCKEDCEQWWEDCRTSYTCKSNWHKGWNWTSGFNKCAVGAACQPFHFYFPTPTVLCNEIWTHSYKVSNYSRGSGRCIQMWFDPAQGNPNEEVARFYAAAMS

As for “MOv19-27z CAR (murine anti-human FRA MOv19 CAR)”, the frequency of T cells with surface CAR before exposure to SKOV3 tumor cells was 65 % of T cells and the frequency of T cells with surface CAR five hours after exposure to SKOV3 tumor cells is 1 % of T cells.
